Measured values from patent publication US20120015885A1.

Target: CaMKIV
Assay: cell-based or functional assay

B1: tatCN21 (peptide)
peptide: YGRKKRRQRRRKRPPKLGQIGRSKRVVIEDDR
modifications: not checked
In the case of B1, the kinase activity in a kinase panel, 5 µM tatCN21, reduction is reported as 35%.
